Experiments:
SIRT3 = target: T1, SIRT3 (Homo sapiens, UniProt Q9NTG7); experiment: deacetylation of AcK101 ECHS1 peptide, MS; type: biochemical; conditions: 1 mM NAD+, 30 mM HEPES pH 7.0, 37 °C; acetylated 9-residue ECHS1 peptide as co-substrate
T1 construct: recombinant from E. coli (DE3)
T1 sequence (Q9NTG7 102-399): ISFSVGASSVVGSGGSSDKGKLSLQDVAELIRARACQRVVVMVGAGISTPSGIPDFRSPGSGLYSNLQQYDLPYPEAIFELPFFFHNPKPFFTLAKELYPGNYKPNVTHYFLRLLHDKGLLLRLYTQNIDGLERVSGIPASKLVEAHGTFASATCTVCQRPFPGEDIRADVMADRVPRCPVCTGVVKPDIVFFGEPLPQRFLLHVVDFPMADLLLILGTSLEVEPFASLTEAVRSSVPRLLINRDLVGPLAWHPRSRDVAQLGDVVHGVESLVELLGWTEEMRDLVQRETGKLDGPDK

purified protein = substrate: C/C=C/C(=O)SCCNC(=O)CCNC(=O)[C@H](O)C(C)(C)COP(=O)(O)OP(=O)(O)OC[C@H]1O[C@@H](n2cnc3c(N)ncnc32)[C@H](O)[C@@H]1OP(=O)(O)O; experiment: purified protein; type: biochemical, Homo sapiens; conditions: 50 mM Tris-HCl pH 8.0

NC(=O)c1ccc[n+]([C@@H]2O[C@H](COP(=O)(O)OP(=O)(O)OC[C@H]3O[C@@H](n4cnc5c(N)ncnc54)[C@H](O)[C@@H]3O)[C@@H](O)[C@H]2O)c1 [NAD^+] was tested, and the “deacetylation of AcK101 ECHS1 peptide, MS” value (SIRT3) was “SIRT3 deacetylated synthetic AcK101-containing ECHS1 peptide in an NAD^+-dependent manner in vitro”.

B1: ECHS1 (enoyl-CoA hydratase-1) (Homo sapiens) (protein)
chain: ASGANFEYIIAEKRGKNNTVGLIQLNRPKALNALCDGLIDELNQALKTFEEDPAVGAIVLTGGDKAFAAGADIKEMQNLSFQDCYSSKFLKHWDHLTQVKKPVIAAVNGYAFGGGCELAMMCDIIYAGEKAQFAQPEILIGTIPGAGGTQRLTRAVGKSLAMEMVLTGDRISAQDAKQAGLVSKICPVETLVEEAIQCAEKIASNSKIVVAMAKESVNAAFEMTLTEGSKLEKKLFYSTFATDDRKEGMTAFVEKRKANFKDQ
B1 gave a Km (purified protein) of 360 ± 180 µM.

B2: ECHS1 (enoyl-CoA hydratase-1) (Homo sapiens; K101R) (protein)
chain: ASGANFEYIIAEKRGKNNTVGLIQLNRPKALNALCDGLIDELNQALKTFEEDPAVGAIVLTGGDKAFAAGADIREMQNLSFQDCYSSKFLKHWDHLTQVKKPVIAAVNGYAFGGGCELAMMCDIIYAGEKAQFAQPEILIGTIPGAGGTQRLTRAVGKSLAMEMVLTGDRISAQDAKQAGLVSKICPVETLVEEAIQCAEKIASNSKIVVAMAKESVNAAFEMTLTEGSKLEKKLFYSTFATDDRKEGMTAFVEKRKANFKDQ
For B2, the Km (purified protein) was 300 ± 80 µM.

B3: ECHS1 (enoyl-CoA hydratase-1) (Homo sapiens; K101Q) (protein)
chain: ASGANFEYIIAEKRGKNNTVGLIQLNRPKALNALCDGLIDELNQALKTFEEDPAVGAIVLTGGDKAFAAGADIQEMQNLSFQDCYSSKFLKHWDHLTQVKKPVIAAVNGYAFGGGCELAMMCDIIYAGEKAQFAQPEILIGTIPGAGGTQRLTRAVGKSLAMEMVLTGDRISAQDAKQAGLVSKICPVETLVEEAIQCAEKIASNSKIVVAMAKESVNAAFEMTLTEGSKLEKKLFYSTFATDDRKEGMTAFVEKRKANFKDQ
With B3 the Km (purified protein) was 740 ± 430 µM.
